{
  "source": "patent US20240299584A1",
  "about": "“NON-CODING RNA PROTECTING AGAINST HEART FAILURE” (MEDIZINISCHE HOCHSCHULE HANNOVER, priority 2019, published 2024)",
  "molecules": {"B1": {"name": "circINSR: circRNA formed through backsplicing of the second exon of the insulin receptor gene transcript; overexpressed from plasmid or AAV (nucleic acid, listed as Homo sapiens)", "chain": "UGUGUCCCGGCAUGGAUAUCCGGAACAACCUCACUAGGUUGCAUGAGCUGGAGAAUUGCUCUGUCAUCGAAGGACACUUGCAGAUACUCUUGAUGUUCAAAACGAGGCCCGAAGAUUUCCGAGACCUCAGUUUCCCCAAACUCAUCAUGAUCACUGAUUACUUGCUGCUCUUCCGGGUCUAUGGGCUCGAGAGCCUGAAGGACCUGUUCCCCAACCUCACGGUCAUCCGGGGAUCACGACUGUUCUUUAACUACGCGCUGGUCAUCUUCGAGAUGGUUCACCUCAAGGAACUCGGCCUCUACAACCUGAUGAACAUCACCCGGGGUUCUGUCCGCAUCGAGAAGAACAAUGAGCUCUGUUACUUGGCCACUAUCGACUGGUCCCGUAUCCUGGAUUCCGUGGAGGAUAAUUACAUCGUGUUGAACAAAGAUGACAACGAGGAGUGUGGAGACAUCUGUCCGGGUACCGCGAAGGGCAAGACCAACUGCCCCGCCACCGUCAUCAACGGGCAGUUUGUCGAACGAUGUUGGACUCAUAGUCACUGCCAGAAAG", "modifications": "circular RNA; RNA sequence", "notes": "circRNA formed through backsplicing of the second exon of the insulin receptor gene transcript; overexpressed from plasmid or AAV"}},
  "key": {"HL-1 cells [1]": {"system": "HL-1 cells", "assay": "mtDNA copy number measurement", "type": "cell-based, mouse", "settings": "doxorubicin 0.25 μM 48 h, circ-Insr by overexpression plasmid", "experimental": "Based on the results of the foregoing examples, it was reasoned that circ-Insr could interact with SSBP1. To further confirm the interaction between circ-Insr and SSBP1, siRNA mediated circ-Insr knock-down was applied in HL-1 cells. Next, RNA pulldown was performed with circ-Insr and scramble biotinylated probes. RT-qPCR confirmed that decrease of circ-Insr appeared both in input and circ-Insr pulldown group (FIG. 23A). […] Therefore, we assumed that circ-Insr is a cofactor of SSBP1 resulting in the regulation of mitochondrial function in cardiomyocytes by stabilizing mtDNA. […] Furthermore, mito-damage assay was applied to measure the changes in mitochondrial membrane potential (MMP). […] Next, we co-transfected HL-1 cells with pcDNA-circ-Insr and SSBP1 siRNA and examined cell viability using the WST assay to explore whether SSBP1 participated in the circ-Insr overexpression-mediated therapy of doxorubicin-cardiotoxicity. RT-qPCR indicated SSBP1 siRNA could downregulate endogenous SSBP1 expression (FIG. 23G).\nThe ratio of mtDNA to genomic DNA was calculated by dividing copies of CYTB with copies of ACTB in each experiment (Li J, Chan M C, Yu Y, Bei Y H, Chen P, Zhou Q L, et al. miR-29b contributes to multiple types of muscle atrophy. Nature communications. 2017; 8). […] Fluorescence was measured during the last step of each cycle using the SYBR channel. […]"}, "HL-1 cells [2]": {"system": "HL-1 cells", "assay": "Annexin V & 7-AAD staining (apoptosis)", "type": "cell-based, mouse", "settings": "HL-1 cells treated with doxorubicin 0.25 μM 48 h", "experimental": "HL-1 cells were cultured in Claycomb medium together with 10% FBS, norepinephrine, L-Glutamine and pencillin/streptomycin as manufacturer's protocol. 3T3 and RAW264.7 cells were cultured in DMEM with 10% FBS and pencillin/streptomycin. Neonatal rat cardiomyocytes (NRCM) were isolated from one to three-day old rat babies by using the Neonatal Heart Dissociation Kit (Miltenyi). Human iPSC derived cardiomyocytes (hiPSC-cm) were differentiated at the lab of IMTTS. All the cells were treated with 0.25 μM Doxorubicin (Sigma-Aldrich) for 48 hours. circ-Insr siRNA (Eurofins), in vitro circular RNA and overexpression plasmid were transfected with Lipofectamine 2000 (Life Technologies) in OptiMEM medium. NRCM and hipsc-CM were transduced by AAV6 (MOI: 1*10^4) for 72 hours.\nFlowCellect Annexin Red kit (Millipore) was used to stain apoptotic cells as per the manufacturer instruction. Briefly, cells were seeded in 12 well plate and next day treated with 0.25 μM Doxorubicin in normal medium with 10% FBS for forty-eight hours. Then cells were trypsinized and harvested and stained with Annexin-V for 15 minutes at 37° C. in 1× assay buffer. Annexin-V stained cells were centrifuged and washed with 1× assay buffer. Next cells were incubated with 7-AAD for 5 minutes and acquired on Guava (Millipore) flow cytometer. Data was analyzed with FLOWJO software."}, "SSBP1": {"target": "T1, SSBP1 (Mus musculus, UniProt Q9CYR0)", "T1 construct": "biotinylated DNA oligo probes against endogenous or ectopically expressed circ-Insr and linear-Insr; endogenous in cells; host or cells: 3T3 cells", "T1 sequence (Q9CYR0 17-152)": "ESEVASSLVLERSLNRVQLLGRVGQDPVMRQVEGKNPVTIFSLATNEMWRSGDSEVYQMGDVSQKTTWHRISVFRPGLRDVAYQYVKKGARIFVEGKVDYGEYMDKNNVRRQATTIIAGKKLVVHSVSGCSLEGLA", "assay": "RNA pull-down with circINSR probe, Western blotting", "type": "binding", "settings": "Western blot with SSBP1-specific antibodies", "experimental": "Finally, RNA pull-down experiments were performed to identify potential protein interaction partners of circINSR. To do so, a biotin-labelled probe was designed which spans the backsplice junction (FIG. 8A). […] Mass spectrometry analysis of the pull-down lysates yielded a list of potential protein interactors. After applying several filtering parameters (relative MS peptide count >15, relative enrichment over hostgene and control probe log 2FC>2) and cat rapid analysis to calculate the interaction propensity with circINSR, Single-stranded DNA-binding protein 1, SSBP1, was identified as the most probable binding partner of circINSR (FIG. 8B). […] Moreover, co-localisation of circINSR and SSBP1 in Immuno-RNA-FISH staining, further confirmed the interaction between those two.\nCell pellets were lysed in 1× Cell lysis buffer (Cell Signaling) and isolated protein was measured by Bradford (Biorad) for quantification. […] Band intensity was calculated by Image J software.\n10^6 cells were washed in ice-cold phosphate-buffered saline, lysed in 500 μl co-IP buffer, and incubated with 3 μg biotinylated DNA oligo probes against endogenous or ectopically expressed circ-Insr and linear-Insr, at room temperature for 2 h. […] The bound proteins in the pull-down materials were analyzed by western blotting and the RNA sample were analysed via qRT-PCR."}},
  "data": [
    {"molecule": "B1", "values": [
      {"measurement": "mtDNA copy number / mtDNA content", "setting": "HL-1 cells [1]", "value": "reverse the decrease"},
      {"measurement": "apoptotic cells (Annexin V)", "setting": "HL-1 cells [2]", "value": "significantly lower levels of apoptosis"},
      {"measurement": "interaction of circINSR with SSBP1", "setting": "SSBP1", "value": "confirmed a physical interaction"}
    ]}
  ]
}
